Measured values taken from patent US20130157929A1, “GLUCAGON ANALOGUES” (ZEALAND PHARMA A/S, published 2013).
Starred links: 1 amine or outer side, 2 acyl side, 3 side chain; linkers in the order of their positions; H or OH if unused. Non-standard residues stand in square brackets, D forms with d. Groups on a side chain read outwards from the residue. *: point of attachment. γGlu = O=C(O)[C@H](CCC(=O)[*:2])N[*:1]; Palmitoyl = CCCCCCCCCCCCCCCC(=O)*; 3Pal = N[C@@H](Cc1cccnc1)C(=O)O; Cit = NC(=O)NCCC[C@H](N)C(=O)O; hSer = N[C@@H](CCO)C(=O)O; Aib = CC(C)(N)C(=O)O

B1: Compound 21 (peptide)
peptide: H-H[Aib][Cit]GTFTSDYSKYLDSK([γGlu-Palmitoyl])AAHDFVEWLLSA-NH2
SMILES: CCCCCCCCCCCCCCCC(=O)N[C@@H](CCC(=O)NCCCC[C@H](NC(=O)[C@H](CO)NC(=O)[C@H](CC(=O)O)NC(=O)[C@H](CC(C)C)NC(=O)[C@H](Cc1ccc(O)cc1)NC(=O)[C@H](CCCCN)NC(=O)[C@H](CO)NC(=O)[C@H](Cc1ccc(O)cc1)NC(=O)[C@H](CC(=O)O)NC(=O)[C@H](CO)NC(=O)[C@@H](NC(=O)[C@H](Cc1ccccc1)NC(=O)[C@@H](NC(=O)CNC(=O)[C@H](CCCNC(N)=O)NC(=O)C(C)(C)NC(=O)[C@@H](N)Cc1c[nH]cn1)[C@@H](C)O)[C@@H](C)O)C(=O)N[C@@H](C)C(=O)N[C@@H](C)C(=O)N[C@@H](Cc1c[nH]cn1)C(=O)N[C@@H](CC(=O)O)C(=O)N[C@@H](Cc1ccccc1)C(=O)N[C@H](C(=O)N[C@@H](CCC(=O)O)C(=O)N[C@@H](Cc1c[nH]c2ccccc12)C(=O)N[C@@H](CC(C)C)C(=O)N[C@@H](CC(C)C)C(=O)N[C@@H](CO)C(=O)N[C@@H](C)C(N)=O)C(C)C)C(=O)O
B2: Compound 31 (peptide)
peptide: H-H[Aib]HGTFTSDYSKYLESK([γGlu-Palmitoyl])AAEEFVEWLLEA-NH2
SMILES: CCCCCCCCCCCCCCCC(=O)N[C@@H](CCC(=O)NCCCC[C@H](NC(=O)[C@H](CO)NC(=O)[C@H](CCC(=O)O)NC(=O)[C@H](CC(C)C)NC(=O)[C@H](Cc1ccc(O)cc1)NC(=O)[C@H](CCCCN)NC(=O)[C@H](CO)NC(=O)[C@H](Cc1ccc(O)cc1)NC(=O)[C@H](CC(=O)O)NC(=O)[C@H](CO)NC(=O)[C@@H](NC(=O)[C@H](Cc1ccccc1)NC(=O)[C@@H](NC(=O)CNC(=O)[C@H](Cc1c[nH]cn1)NC(=O)C(C)(C)NC(=O)[C@@H](N)Cc1c[nH]cn1)[C@@H](C)O)[C@@H](C)O)C(=O)N[C@@H](C)C(=O)N[C@@H](C)C(=O)N[C@@H](CCC(=O)O)C(=O)N[C@@H](CCC(=O)O)C(=O)N[C@@H](Cc1ccccc1)C(=O)N[C@H](C(=O)N[C@@H](CCC(=O)O)C(=O)N[C@@H](Cc1c[nH]c2ccccc12)C(=O)N[C@@H](CC(C)C)C(=O)N[C@@H](CC(C)C)C(=O)N[C@@H](CCC(=O)O)C(=O)N[C@@H](C)C(N)=O)C(C)C)C(=O)O
B3: Compound 1 (peptide)
peptide: H-H[Aib]HGTFTSDYSKYLDSK([γGlu-Palmitoyl])AAHDFVEWLLSA-NH2
SMILES: CCCCCCCCCCCCCCCC(=O)N[C@@H](CCC(=O)NCCCC[C@H](NC(=O)[C@H](CO)NC(=O)[C@H](CC(=O)O)NC(=O)[C@H](CC(C)C)NC(=O)[C@H](Cc1ccc(O)cc1)NC(=O)[C@H](CCCCN)NC(=O)[C@H](CO)NC(=O)[C@H](Cc1ccc(O)cc1)NC(=O)[C@H](CC(=O)O)NC(=O)[C@H](CO)NC(=O)[C@@H](NC(=O)[C@H](Cc1ccccc1)NC(=O)[C@@H](NC(=O)CNC(=O)[C@H](Cc1c[nH]cn1)NC(=O)C(C)(C)NC(=O)[C@@H](N)Cc1c[nH]cn1)[C@@H](C)O)[C@@H](C)O)C(=O)N[C@@H](C)C(=O)N[C@@H](C)C(=O)N[C@@H](Cc1c[nH]cn1)C(=O)N[C@@H](CC(=O)O)C(=O)N[C@@H](Cc1ccccc1)C(=O)N[C@H](C(=O)N[C@@H](CCC(=O)O)C(=O)N[C@@H](Cc1c[nH]c2ccccc12)C(=O)N[C@@H](CC(C)C)C(=O)N[C@@H](CC(C)C)C(=O)N[C@@H](CO)C(=O)N[C@@H](C)C(N)=O)C(C)C)C(=O)O

Each binder was assayed against human glucagon receptor (glucagon-R) (human, UniProt P47871) (assay: cell-based or functional assay).

Row | EC50 (nM) GluR, cAMP formation [nM] | Binder
1 | 35 | B1
2 | 4.85 | H-H[Aib][3‑(1-pyrazolyl)alanyl]GTFTSDYSKYLDSK([γGlu-Palmitoyl])AAHDFVEWLLSA-NH2 [Compound 28]
3 | 0.71 | H-H[Aib][3‑(1,2,4-triazol-1-yl)alanyl]GTFTSDYSKYLDSK([γGlu-Palmitoyl])AAHDFVEWLLSA-NH2 [Compound 25]
4 | 0.79 | H-H[Aib][hSer]GTFTSDYSKYLDSK([γGlu-Palmitoyl])AAHDFVEWLLSA-NH2 [Compound 29]
5 | 1.16 | H-H[Aib][3‑(2-thienyl)alanyl]GTFTSDYSKYLDSK([γGlu-Palmitoyl])AAHDFVEWLLSA-NH2 [Compound 26]
6 | 3.8 | H-H[Aib][3‑(2-furyl)alanyl]GTFTSDYSKYLDSK([γGlu-Palmitoyl])AAHDFVEWLLSA-NH2 [Compound 22]
7 | 0.15 | B2
8 | 0.26 | B3
9 | 0.99 | H-H[Aib][3‑(4-thiazolyl)alanyl]GTFTSDYSKYLDSK([γGlu-Palmitoyl])AAHDFVEWLLSA-NH2 [Compound 23]
10 | 1.58 | H-H[Aib][3‑(3-thienyl)alanyl]GTFTSDYSKYLDSK([γGlu-Palmitoyl])AAHDFVEWLLSA-NH2 [Compound 27]
11 | 1.04 | H-H[Aib][3Pal]GTFTSDYSKYLDSK([γGlu-Palmitoyl])AAHDFVEWLLSA-NH2 [Compound 24]

What follows are binders tested against human glucagon-like peptide 1 receptor (GLP-1R) (human, UniProt P43220) (assay: cell-based or functional assay).

Row | EC50 (nM) GLP-1R, cAMP formation [nM] | Binder
12 | 1.2 | B1
13 | 0.11 | H-H[Aib][3‑(1-pyrazolyl)alanyl]GTFTSDYSKYLDSK([γGlu-Palmitoyl])AAHDFVEWLLSA-NH2 [Compound 28]
14 | 0.09 | H-H[Aib][3‑(1,2,4-triazol-1-yl)alanyl]GTFTSDYSKYLDSK([γGlu-Palmitoyl])AAHDFVEWLLSA-NH2 [Compound 25]
15 | 0.05 | H-H[Aib][hSer]GTFTSDYSKYLDSK([γGlu-Palmitoyl])AAHDFVEWLLSA-NH2 [Compound 29]
16 | 0.08 | H-H[Aib][3‑(2-thienyl)alanyl]GTFTSDYSKYLDSK([γGlu-Palmitoyl])AAHDFVEWLLSA-NH2 [Compound 26]
17 | 0.06 | H-H[Aib][3‑(2-furyl)alanyl]GTFTSDYSKYLDSK([γGlu-Palmitoyl])AAHDFVEWLLSA-NH2 [Compound 22]
18 | 0.09 | B2
19 | 0.21 | B3
20 | 0.11 | H-H[Aib][3‑(4-thiazolyl)alanyl]GTFTSDYSKYLDSK([γGlu-Palmitoyl])AAHDFVEWLLSA-NH2 [Compound 23]
21 | 0.27 | H-H[Aib][3‑(3-thienyl)alanyl]GTFTSDYSKYLDSK([γGlu-Palmitoyl])AAHDFVEWLLSA-NH2 [Compound 27]
22 | 0.14 | H-H[Aib][3Pal]GTFTSDYSKYLDSK([γGlu-Palmitoyl])AAHDFVEWLLSA-NH2 [Compound 24]
